# Data as given in the supplement of paper PMC10567573.
# B1: GAGE1 (parent)
# chain: RPRRYVQPPEMIGPMRPEQFSDEV
# Variants of: B1
# Test: protein stability index of a GFP-peptide fusion (GPS, HEK-293T) (PSI 1-6); higher = more stable
# Conditions: c terminus: a fixed tail appended
# 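Also: lentivirally expressed fusions sorted by FACS into six bins by GFP to DsRed ratio, PSI derived from sequencing read proportions per bin multiplied by bin number.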
row,Variant,protein stability index
1,P9M,3.92
2,P9R,4.36
3,P9Y,3.62
4,P9C,4.24
5,P9E,4.71
6,P9Q,4.52
7,P9V,2.61
8,P9W,3.77
9,P9I,3.57
10,P9S,4.29
11,P9H,3.82
12,P9N,3.97
13,P9F,3.79
14,P9G,4.46
15,P9A,3.75
16,P9K,4.13
17,P9L,4
18,P9D,4.61
19,P9T,4.28
20,E10A,4.15
21,E10T,4.33
22,E10D,4.51
23,E10M,4
24,E10N,3.97

row,Variant,protein stability index
1,E10V,3.99
2,E10C,3.13
3,E10P,4.25
4,E10Y,3.18
5,E10S,4.08
6,E10F,3.88
7,E10H,4.32
8,E10G,4.16
9,E10K,4.48
10,E10W,3.56
11,E10R,4.39
12,E10L,3.39
13,E10I,3.69
14,E10Q,3.69
15,V6G,4.18
16,V6H,3.69
17,V6C,3.63
18,V6R,3.6
19,V6A,3.3
20,V6L,3.69
21,V6M,3.59
22,V6S,4.17
23,V6E,3.92
24,V6N,3.9

row,Variant,protein stability index
1,V6I,3.94
2,V6P,4.06
3,V6T,3.66
4,V6D,4.34
5,V6W,3.18
6,V6K,3.83
7,V6Y,3.01
8,V6Q,3.59
9,V6F,3.39
10,P2E,4.12
11,P2F,2.81
12,P2H,3.61
13,P2W,2.14
14,P2K,3.24
15,P2Q,3.45
16,P2T,3.33
17,P2D,3.98
18,P2C,2.99
19,P2Y,2.21
20,P2V,3.5
21,P2N,3.51
22,P2M,3.24
23,P2S,3.92
24,P2I,2.5

row,Variant,protein stability index
1,P2L,2.99
2,P2G,3.59
3,P2A,3.59
4,P2R,4.1
5,R3S,4.26
6,R3F,2.21
7,R3I,4.23
8,R3G,3.96
9,R3M,3.89
10,R3C,3.1
11,R3P,4.04
12,R3K,4.02
13,R3D,4.28
14,R3N,4.07
15,R3Y,3.1
16,R3V,4.03
17,R3T,4.3
18,R3A,3.74
19,R3W,2.6
20,R3H,3.83
21,R3Q,4.11
22,R3E,4.51
23,R3L,2.88
24,M11Q,3.84

row,Variant,protein stability index
1,M11K,4.15
2,M11C,3.56
3,M11I,3.38
4,M11V,3.46
5,M11W,3.91
6,M11G,4.44
7,M11E,3.88
8,M11D,3.53
9,M11R,4.22
10,M11T,3.74
11,M11L,3.4
12,M11N,3.38
13,M11S,3.54
14,M11A,4.34
15,M11P,4.53
16,M11Y,3.82
17,M11H,4.37
18,M11F,4.05
19,P17Y,3.36
20,P17M,3.88
21,P17T,3.85
22,P17A,3.8
23,P17W,3.66
24,P17H,3.92

row,Variant,protein stability index
1,P17K,4.14
2,P17L,3.97
3,P17C,3.79
4,P17F,3.58
5,P17Q,4.15
6,P17R,3.96
7,P17S,4.39
8,P17I,3.72
9,P17G,4.55
10,P17D,4.43
11,P17E,4.33
12,P17N,4.09
13,P17V,4.43
14,Q7F,3.87
15,Q7T,4.01
16,Q7S,4.24
17,Q7W,3.73
18,Q7A,3.77
19,Q7K,4.02
20,Q7R,3.29
21,Q7D,3.8
22,Q7M,3.52
23,Q7H,4.14
24,Q7I,3.63

row,Variant,protein stability index
1,Q7V,3.57
2,Q7L,3.85
3,Q7Y,3.73
4,Q7G,3.3
5,Q7E,3.86
6,Q7N,3.64
7,Q7C,4.04
8,Q7P,3.96
9,R16N,4.31
10,R16W,3.28
11,R16C,3.84
12,R16L,3.5
13,R16T,3.8
14,R16I,4.44
15,R16S,3.87
16,R16M,3.88
17,R16Y,4.02
18,R16A,4.31
19,R16P,4.35
20,R16E,4.3
21,R16K,3.94
22,R16F,3.8
23,R16Q,4.26
24,R16V,4.16

row,Variant,protein stability index
1,R16H,4.29
2,R16G,4.17
3,R16D,3.84
4,R4V,3.89
5,R4Q,4.66
6,R4S,4.05
7,R4M,4.07
8,R4Y,3.79
9,R4C,3.64
10,R4G,4.12
11,R4I,3.43
12,R4W,3.09
13,R4D,4.46
14,R4P,4.11
15,R4H,3.43
16,R4F,3.88
17,R4E,3.92
18,R4T,3.98
19,R4K,3.69
20,R4A,3.94
21,R4L,4.04
22,R4N,3.72
23,Y5L,3.31
24,Y5F,3.78

row,Variant,protein stability index
1,Y5E,4.55
2,Y5M,3.47
3,Y5W,3.61
4,Y5Q,4.2
5,Y5R,3.91
6,Y5S,4
7,Y5P,4.32
8,Y5H,3.81
9,Y5D,4.22
10,Y5K,4.43
11,Y5N,4.17
12,Y5C,3.2
13,Y5I,3.31
14,Y5G,4.49
15,Y5T,4.45
16,Y5V,4.41
17,Y5A,4.38
18,P8M,3.48
19,P8K,3.98
20,P8F,3.41
21,P8A,3.71
22,P8Q,3.37
23,P8D,4.31
24,P8S,4.36

row,Variant,protein stability index
1,P8Y,3.52
2,P8W,3.09
3,P8I,3.27
4,P8C,3.61
5,P8R,3.93
6,P8H,4.18
7,P8L,3.31
8,P8T,4.12
9,P8G,4.51
10,P8E,4.54
11,P8N,4.22
12,P8V,3.5
13,P14Q,4.23
14,P14N,4.2
15,P14V,4.2
16,P14L,3.48
17,P14M,3.6
18,P14I,4.13
19,P14F,3.54
20,P14Y,4.26
21,P14T,4.44
22,P14K,3.71
23,P14H,4.31
24,P14G,3.97

row,Variant,protein stability index
1,P14W,3.58
2,P14S,4.13
3,P14D,4.54
4,P14R,4.31
5,P14A,4.38
6,P14E,4.41
7,P14C,3.68
8,M15G,4.7
9,M15L,3.95
10,M15S,4.84
11,M15D,4.75
12,M15P,4.31
13,M15C,4.31
14,M15T,4.72
15,M15Y,4
16,M15R,4.17
17,M15V,4.49
18,M15E,4.78
19,M15F,3.89
20,M15Q,4.58
21,M15H,3.69
22,M15N,3.97
23,M15W,3.49
24,M15K,4.48

row,Variant,protein stability index
1,M15I,4.12
2,M15A,4.21
3,E18S,3.33
4,E18D,3.48
5,E18I,3.13
6,E18P,3.6
7,E18A,3.81
8,E18Q,3.56
9,E18L,3.52
10,E18M,3.45
11,E18G,3.86
12,E18F,3.34
13,E18K,3.43
14,E18R,3.57
15,E18C,3.21
16,E18H,3.46
17,E18T,3.84
18,E18N,3.66
19,I12D,4.72
20,I12C,4.33
21,I12N,4.71
22,I12F,3.99
23,I12T,4.53
24,I12H,4.3

row,Variant,protein stability index
1,I12A,4.42
2,I12R,4.35
3,I12P,4.31
4,I12M,4.39
5,I12Q,4.62
6,I12E,4.57
7,I12Y,3.91
8,I12W,3.84
9,I12L,4.12
10,I12K,4.62
11,I12G,4.69
12,I12V,4.77
13,I12S,4.36
14,G13W,3.56
15,G13A,4.21
16,G13E,3.95
17,G13P,4.68
18,G13D,4.63
19,G13V,4.05
20,G13L,3.71
21,G13C,3.96
22,G13Q,4.54
23,G13I,3.25
24,G13M,4.14

row,Variant,protein stability index
1,G13H,4.07
2,G13Y,3.85
3,G13R,4.19
4,G13K,3.72
5,G13N,4.33
6,G13F,3.8
7,G13S,4.09
8,G13T,4.33
9,R1N,3.93
10,R1I,3.7
11,R1K,3.96
12,R1L,3.96
13,R1W,2.74
14,R1Y,3.29
15,R1S,3.73
16,R1H,3.94
17,R1T,4.01
18,R1G,3.85
19,R1M,3.98
20,R1P,3.8
21,R1Q,4.23
22,R1V,3.59
